Where a chain is given by its changes, count along the chain named. Values belong to the molecule of their own block, whether it stands above or below them.
Legend:
[1] = target: human PKD1 kinase domain (PKD1^CAT, residues 569–892) (human) (UniProt Q15139); assay: SEC-MALS; PKD1^CAT, first run, 625 μg injected
[2] = target: human PKD1 kinase domain (PKD1^CAT, residues 569–892) (human) (UniProt Q15139); assay: fluorescence polarisation; fluorescence anisotropy; 195 μM PKD1^CAT with 80 nM Atto488-labeled PKD1^CAT successively diluted with buffer containing 80 nM labeled protein; 50 mM Tris pH 7.5, 220 mM KCl, 1% glycerol, 1 mM TCEP; 20 °C; single binding model; dimer to monomers
[3] = target: the molecule itself; assay: SEC-MALS; Superdex 200 10/300; 20 mM Tris pH 7.5, 150 mM KCl, 1 mM TCEP; 50 μl of 2.5 mg/ml protein injected
[4] = target: T1, Atto488-labeled DKF-1 ULD^R42C (C. elegans, UniProt Q9XUJ7 1-94, R42C, Atto488 (maleimide-conjugated) on cysteine 42); assay: fluorescence polarisation; fluorescence anisotropy; ULD or ULD^F59E (222 or 150 μM stock) titrated into 35–70 nM Atto488-ULD^R42C; 20 mM Tris pH 7.5, 150 mM KCl, 1% glycerol, 1 mM TCEP; 20 °C; single-site binding model; dimer to monomers; settings: both partners purified
T1 construct: C. elegans DKF-1, residues 1-94 (ubiquitin-like domain) with the surface-exposed arginine 42 mutated to cysteine; Labeling efficiency estimated at about 80%; also called Atto488-ULD^R42C; source: E. coli BL21*, purified in the same way as the WT counterpart, labelled with maleimide-Atto488; not shown: GST, N-terminal, cleaved
T1 sequence (looked up): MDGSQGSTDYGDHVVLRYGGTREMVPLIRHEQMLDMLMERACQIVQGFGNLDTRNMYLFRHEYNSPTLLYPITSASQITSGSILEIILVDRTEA

[5] = target: the molecule itself; assay: fluorescence polarisation; fluorescence anisotropy; unlabeled PKD1 ULD (800 μM stock) titrated into 40 nM Atto488-labeled PKD1 ULD; 20 mM Tris pH 7.5, 150 mM KCl, 1 mM TCEP, 1% glycerol; 20 °C; single binding model; dimer to monomers

stoichiometry N [1]: 2
Kd [2]: 50000 nM
Molecule: human PKD1 kinase domain (PKD1^CAT, residues 569–892) (from UniProt Q15139 569-892) (domain or fragment)

B1: DKF-1 ULD–C1a (DKF-1^1–151) (domain or fragment, C. elegans, UniProt Q9XUJ7 1-151, looked up)
chain: MDGSQGSTDYGDHVVLRYGGTREMVPLIRHEQMLDMLMERARQIVQGFGNLDTRNMYLFRHEYNSPTLLYPITSASQITSGSILEIILVDRTEAAVIPHVVEPESYMRPTFCDFCGEMLTGLMRQGVKCKNCNGNFHKRCSNAARNNCGAP
notes: C. elegans PKD homolog DKF-1, residues 1-151 (ubiquitin-like domain and C1a domain); The final crystallographic model comprises residues 12-151; also called PKD N terminus; source: E. coli BL21*, purified (GSH beads, TEV cleavage on beads, SEC); not shown: GST, N-terminal, cleaved
stoichiometry N [3]: 2

Kd [4]: 650 ± 70 nM
B2: DKF-1 ULD (DKF-1^1–94) (domain or fragment, C. elegans, UniProt Q9XUJ7 1-94, looked up)
chain: T1 sequence (looked up) with C42R
notes: C. elegans PKD homolog DKF-1, residues 1-94 (ubiquitin-like domain); also called ULD^WT; source: E. coli BL21*, purified (GSH beads, TEV cleavage on beads, SEC); not shown: GST, N-terminal, cleaved
stoichiometry N [3]: 2

B3: human PKD3 ULD (PKD3^55–149) (domain or fragment, UniProt O94806 55-149, looked up)
chain: GSVHTVSFLLQIGLTRESVTIEAQELSLSAVKDLVCSIVYQKFPECGFFGMYDKILLFRHDMNSENILQLITSADEIHEGDLVEVVLSALATVED
notes: human protein kinase D3 (PKD3), residues 55-149 (ubiquitin-like domain); also called ULD of human PKD3; source: E. coli BL21*, purified (GSH beads, TEV cleavage on beads, SEC); not shown: GST, N-terminal, cleaved
stoichiometry N [3]: 2

B4: human PKD1 ULD (PKD1^48–143) (domain or fragment, UniProt Q15139 48-143, looked up)
chain: GISFHLQIGLSREPVLLLQDSSGDYSLAHVREMACSIVDQKFPECGFYGMYDKILLFRHDPTSENILQLVKAASDIQEGDLIEVVLSASATFEDFQ
notes: human protein kinase D1 (PKD1), residues 48-143 (ubiquitin-like domain); In the anisotropy titration 40 nM of the same protein carried Atto488 (maleimide) on its surface-exposed cysteines (labeling efficiency 50%); Addgene 31527 is the plasmid carrying the PKD1 gene; also called ULD of human PKD1; source: E. coli BL21*, purified (GSH beads, TEV cleavage on beads, SEC); not shown: GST, N-terminal, …
stoichiometry N [3]: 2
Kd [5]: 1700 ± 200 nM

Source: article PMC6768651, “A ubiquitin-like domain controls protein kinase D dimerization and activation by trans-autophosphorylation” (The Journal of Biological Chemistry, 2019)
